For assay [1], the target named is T1, mouse MAdCAM expressed on cells (mouse, UniProt Q61826 22-405).
T1 construct: whole, on cells
T1 sequence (looked up): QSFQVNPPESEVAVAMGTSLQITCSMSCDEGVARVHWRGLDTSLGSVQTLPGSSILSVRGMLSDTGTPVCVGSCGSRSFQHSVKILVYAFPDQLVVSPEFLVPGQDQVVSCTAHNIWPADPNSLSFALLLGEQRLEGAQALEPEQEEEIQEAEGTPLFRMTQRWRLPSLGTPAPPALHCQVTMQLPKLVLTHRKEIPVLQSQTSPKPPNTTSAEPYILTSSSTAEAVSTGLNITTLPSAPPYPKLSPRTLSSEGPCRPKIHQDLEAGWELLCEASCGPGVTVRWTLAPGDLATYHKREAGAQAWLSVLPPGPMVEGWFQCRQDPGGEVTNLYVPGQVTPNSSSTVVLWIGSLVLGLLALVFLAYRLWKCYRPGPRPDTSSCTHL
Kind of assay: cell binding.

Assay [2] addresses T2, human MAdCAM expressed on cells (human, UniProt Q13477 19-382).
T2 construct: whole, on cells; also called MADCAM1
T2 sequence (looked up): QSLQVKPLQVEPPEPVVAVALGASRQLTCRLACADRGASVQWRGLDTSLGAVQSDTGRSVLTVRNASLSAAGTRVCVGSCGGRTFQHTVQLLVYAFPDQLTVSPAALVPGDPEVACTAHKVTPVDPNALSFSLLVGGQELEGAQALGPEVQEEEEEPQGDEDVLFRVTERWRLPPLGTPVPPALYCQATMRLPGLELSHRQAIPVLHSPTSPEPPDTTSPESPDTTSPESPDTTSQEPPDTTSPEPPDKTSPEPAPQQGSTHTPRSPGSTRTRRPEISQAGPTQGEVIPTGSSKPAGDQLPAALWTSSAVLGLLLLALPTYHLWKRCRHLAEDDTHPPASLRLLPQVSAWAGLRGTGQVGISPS
The assay can be described thus: cell binding.

Changes are numbered by the printed parent chain.

B1: MAdCAM antibody Clone ID 52 of Table 6 (scFv) (scFv)
scFv: EVQLLESGGGLVQPGGSLRLSCAASGFTFSNSDMNWVRQAPGKGLEWVAHIWNDGSQKYYADSVKGRFTISRDNSKNTLYLQMNSLRAEDTAVYYCARDRTDPGYSSAMDVWGQGTTVTVSSGGGGSGGGGSGGGGSGGGGSDIQMTQSPSSLSASVGDRVTITCRASQDIRNYLGWYQQKPGKAPKLLIYDASSLETGVPSRFSGSGSGTDFTLTISSLQPEDFATYYCQQATSLPLTFGGGTKVEIK
B1: the results for the binding result in assay [1] and in assay [2] were “no binding” and “binds”, respectively.

B2: MAdCAM antibody Clone ID 55 of Table 6 (scFv) (scFv)
scFv: QVQLVQSGAEVKKPGASVKVSCKASGYTFTSYYMHWVRQAPGQGLEWMGIIDPSGGSTSYAQKFQGRVTMTRDTSTSTVYMELSSLRSEDTAVYYCAREEWSSGGVGYFDYWGQGTLVTVSSGGGGSGGGGSGGGGSGGGGSDIQMTQSPSSLSASVGDRVTITCRASQGISSYLAWYQQKPGKAPKLLIYATSSLQTGVPSRFSGSGSGTDFTLTISSLQPEDFATYYCQQTYSIPITFGQGTRLEIK
Turning to B2, the figures for the binding result in assay [1] and in assay [2] were “no binding” and “binds”, respectively.

B3: MAdCAM antibody Clone ID 11 of Table 6 (scFv) (scFv)
scFv: QVQLVQSGAEVKKPGASVKVSCKASGYTFTTYYMHWVRQAPGQGLEWMGGFDPEDGETIYAQKFQGRVTMTRDTSTSTVYMELSSLRSEDTAVYYCARHAVAGAVGAGYYYYGMDVWGQGTMVTVSSGGGGSGGGGSGGGGSGGGGSDIQMTQSPSSLSASVGDRVTITCRASESISNWLAWYQQKPGKAPKLLIYAASTLQSGVPSRFSGSGSGTDFTLTISSLQPEDFATYYCQQSYSVPFTFGPGTKVDIK
Consider B3, for which the binding result is “no binding” in assay [1] and “binds” in assay [2].

B4: MAdCAM antibody Clone ID 15 of Table 6 (scFv) (scFv)
scFv: QVQLVQSGAEVKKPGSSVKVSCKASGYTFTNYYMHWVRQAPGQGLEWMGGIIPIVDRVKYAQKFQGRVTITADESTSTAYMELSSLRSEDTAVYYCAKGRYTVNYYYGMDVWGQGTTVTVSSGGGGSGGGGSGGGGSGGGGSDIQMTQSPSSLSASVGDRVTITCQANQDISNYLNWYQQKPGKAPKLLIYRASKLEAGVPSRFSGSGSGTDFTLTISSLQPEDFATYYCQQSSEIPYSFGQGTKLEIK
Consider B4, for which the binding result in assay [1] is listed as “no binding”; in assay [2], “binds”.

B5: MAdCAM antibody Clone ID 58 of Table 6 (scFv) (scFv)
scFv: QVQLVQSGAEVKKPGASVKVSCKASGYTFTGYYMHWVRQAPGQGLEWMGIINPSGGNTKYAQKFQGRVTMTRDTSTSTVYMELSSLRSEDTAVYYCTTADYYYYMDVWGKGTTVTVSSGGGGSGGGGSGGGGSGGGGSDIQMTQSPSSLSASVGDRVTITCRASQGISNYLAWYQQKPGKAPKLLIYAASSLQSGVPSRFSGSGSGTDFTLTISSLQPEDFATYYCQQYYSNADFGQGTKVEIK
For B5, the binding result in assay [1] is “no binding”; in assay [2], “binds”.

B6: MAdCAM antibody Clone ID 14 of Table 6 (scFv) (scFv)
scFv: QVQLVQSGAEVKKPGSSVKVSCKASGYTFTDYHIHWVRQAPGQGLEWMGGIVPRSGSTTYAQKFQGRVTITADESTSTAYMELSSLRSEDTAVYYCAKDESSGWYYFDYWGQGTLVTVSSGGGGSGGGGSGGGGSGGGGSDIVMTQSPLSLPVTPGEPASISCRSSQSLLHSNGYNYLDWYLQKPGQSPQLLIYSAYNRASGVPDRFSGSGSGTDFTLKISRVEAEDVGVYYCMQALQTPLTFGQGTKVEIK
On to B6, for which the binding result in assay [1] is listed as “no binding”; in assay [2], “binds”.

B7: MAdCAM antibody Clone ID 54 of Table 6 (scFv) (scFv)
scFv: EVQLLESGGGLVQPGGSLRLSCAASGFTFGDYAMSWVRQAPGKGLEWVAVVSYDGTNKYYADSVKGRFTISRDNSKNTLYLQMNSLRAEDTAVYYCAKDICSSTSCYFDLWGRGTLVTVSSGGGGSGGGGSGGGGSGGGGSDIQMTQSPSSLSASVGDRVTITCRASQNINNYVNWYQQKPGKAPKLLIYDASNLETGVPSRFSGSGSGTDFTLTISSLQPEDFATYYCQQANSFPPTFGQGTRLEIK
On to B7, for which the results for the binding result in assay [1] and in assay [2] were “no binding” and “binds”, respectively.

B8: MAdCAM antibody Clone ID 21 of Table 6 (scFv) (scFv)
scFv: EVQLLESGGGLVQPGGSLRLSCAASGFTFSNAWMSWVRQAPGKGLEWVSTIVGNGGATYYADSVKGRFTISRDNSKNTLYLQMNSLRAEDTAVYYCARDNPLRWQGMDVWGQGTLVTVSSGGGGSGGGGSGGGGSGGGGSDIQMTQSPSSLSASVGDRVTITCRASQDISNYLNWYQQKPGKAPKLLIYAASSLQSGVPSRFSGSGSGTDFTLTISSLQPEDFATYYCQQSYSIPPTFGPGTKVDIK
Take B8: the binding result in assay [1] is “no binding”; in assay [2], “binds”.

B9: MAdCAM antibody Clone ID 53 of Table 6 (scFv) (scFv)
scFv: QVQLVQSGAEVKKPGASVKVSCKASGYTFTSYDINWVRQAPGQGLEWMGWMNPNSGNTGYAQKFQGRVTMTRDTSTSTVYMELSSLRSEDTAVYYCAKDSDYSNLLWDYWGQGTLVTVSSGGGGSGGGGSGGGGSGGGGSDIQMTQSPSSLSASVGDRVTITCRASQDITNDLGWYQQKPGKAPKLLIYQASSLESGVPSRFSGSGSGTDFTLTISSLQPEDFATYYCQQSYTIPLTFGQGTKVEIK
On to B9, for which the figures for the binding result in assay [1] and in assay [2] were “no binding” and “binds”, respectively.

B10: MAdCAM antibody Clone ID 16 of Table 6 (scFv) (scFv)
scFv: EVQLLESGGGLVQPGGSLRLSCAASGFTFEDYAMHWVRQAPGKGLEWVSYLNSDGGSTSYADSVKGRFTISRDNSKNTLYLQMNSLRAEDTAVYYCAKDYCTNGVCAFDYWGQGTLVTVSSGGGGSGGGGSGGGGSGGGGSDIQMTQSPSSLSASVGDRVTITCRASQSISTYLNWYQQKPGKAPKLLIYDASNLETGVPSRFSGSGSGTDFTLTISSLQPEDFATYYCQQSYTIPITFGQGTRLEIK
For B10, the binding result is “no binding” in assay [1] and “binds” in assay [2].

B11: MAdCAM antibody Clone ID 10 of Table 6 (scFv) (scFv)
scFv: QVQLVQSGAEVKKPGASVKVSCKASGYTLTTWYMYWVRQAPGQGLEWMGWINPNRGATNYAQKFQGRVTMTRDTSTSTVYMELSSLRSEDTAVYYCAKGDLWGAMDVWGQGTLVTVSSGGGGSGGGGSGGGGSGGGGSDIQMTQSPSSLSASVGDRVTITCRASDNIGSWLAWYQQKPGKAPKLLIYAASSLQSGVPSRFSGSGSGTDFTLTISSLQPEDFATYYCQQGYSTPPTFGQGTKVEIK
For B11, the binding result was “no binding” in assay [1] and “binds” in assay [2].

B12: MAdCAM antibody Clone ID 26 of Table 6 (scFv) (scFv)
scFv: B11 scFv with L113T
Turning to B12, the binding result in assay [1] is “no binding”; in assay [2], “binds”.

B13: MAdCAM antibody Clone ID 17 of Table 6 (scFv) (scFv)
scFv: EVQLLESGGGLVQPGGSLRLSCAASGFTFSDSAMHWVRQAPGKGLEWVSAISGSGSTIYYADSVKGRFTISRDNSKNTLYLQMNSLRAEDTAVYYCVSDIAVAGHWYFDLWGRGTLVTVSSGGGGSGGGGSGGGGSGGGGSDIQMTQSPSSLSASVGDRVTITCRASQSISTFLNWYQQKPGKAPKLLIYAASRLEGGVPSRFSGSGSGTDFTLTISSLQPEDFATYYCQQANSFPLTFGPGTKVDIK
On to B13, for which the binding result in assay [1] was “no binding”; in assay [2] it was “binds”.

B14: MAdCAM antibody Clone ID 8 of Table 6 (scFv) (scFv)
scFv: EVQLLESGGGLVQPGGSLRLSCAASGFMFGDYAMHWVRQAPGKGLEWVSAISGSGGSTYYADSVKGRFTISRDNSKNTLYLQMNSLRAEDTAVYYCAKDLVVAGIWYFDLWGRGTLVTVSSGGGGSGGGGSGGGGSGGGGSDIQMTQSPSSLSASVGDRVTITCRASQGISNNLNWYQQKPGKAPKLLIYDASSLESGVPSRFSGSGSGTDFTLTISSLQPEDFATYYCQQTHSFPSTFGQGTKLEIK
B14: the binding result in assay [1] is given as “no binding”; in assay [2], “binds”.

B15: MAdCAM antibody Clone ID 13 of Table 6 (scFv) (scFv)
scFv: EVQLLESGGGLVQPGGSLRLSCAASGFTFDDYAMHWVRQAPGKGLEWVSYIDASGTTIYYADSVKGRFTISRDNSKNTLYLQMNSLRAEDTAVYYCAKDQAAAGYWYFDLWGRGTLVTVSSGGGGSGGGGSGGGGSGGGGSDIQMTQSPSSLSASVGDRVTITCQASQDISNYLNWYQQKPGKAPKLLIYKASTLESGVPSRFSGSGSGTDFTLTISSLQPEDFATYYCQQSYSTPITFGQGTRLEIK
With B15, the binding result was “no binding” in assay [1] and “binds” in assay [2].

B16: MAdCAM antibody Clone ID 57 of Table 6 (scFv) (scFv)
scFv: QVQLVQSGAEVKKPGASVKVSCKASGYTFTSYYMHWVRQAPGQGLEWMGIINPSGGSTSYAQKFQGRVTMTRDTSTSTVYMELSSLRSEDTAVYYCARDSVAGTGGRYYGMDVWGQGTLVTVSSGGGGSGGGGSGGGGSGGGGSDIQMTQSPSSLSASVGDRVTITCRASQGISNYFAWYQQKPGKAPKLLIYAASSLQGGVPSRFSGSGSGTDFTLTISSLQPEDFATYYCQQSYSLPYTFGQGTKLEIK
On to B16, for which the figures for the binding result in assay [1] and in assay [2] were “no binding” and “binds”, respectively.
